Legend:
[1] = Triton X-114 partition assay; format: physicochemical; details: partition into aqueous phase of Triton X-114 at 37° C.
Experimental: Solubility of a hyaluronidase can be determined by any method known to one of the skill in the art. One method for determining solubility is by detergent partitioning. […] For example, the solubility of the PH20 polypeptides described herein is assessed as described in Example 4. Membrane-anchored hyaluronidases, such as lipid-anchored hyaluronidases, including GPI-anchored hyaluronidases, will partition into the detergent-rich phase, but will partition into the detergent-poor or aqueous phase following treatment with Phospholipase C. Phospholipase C is an enzyme that cleaves the […] found in GPI-anchored proteins. Treatment with PLC will cause release of GPI-linked proteins from the outer cell membrane.
The samples were heated to 37° C. for 3 minutes to induce phase separation and centrifuged for 3 min at 4000 g at room temperature. Aqueous and detergent phases were removed for SDS-PAGE analysis and Western blotting. Rabbit anti-PH20 IgG (0.5 μg/mL) was used as the primary antibody and HRP-conjugated goat anti-Rabbit IgG (0.1 ng/mL, Cat#DC03L, EMD) was used as the secondary antibody. Full length human PH20, which partitions strongly into the detergent phase, was used as a control.

[2] = Microtiter hyaluronidase activity assay with biotinylated-hyaluronic acid; format: biochemical; details: 72 hour post transfection supernatant
CHO-S cells [3] = assay: PI-PLC treatment of expressing cells, Western blot of media and cells; format: cell-based, Chinese Hamster; details: cells incubated with PI-PLC for 2 hours
How it was run: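 CHO-S cells transiently expressing rHuPH20 or C-terminal truncation mutants were treated with PI-PLC (0.5 units/well, or 3.0 units/dish in serum/detergent-free medium) for 2 h at 37 °C after 48–72 h expression. Untreated and treated media and cell extracts were analysed separately by Western blot for PH20.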

CHO-S cells [4] = assay: Western blot analysis of PH20 expression in media and cells after transient expression; format: cell-based, Chinese Hamster; details: media versus cells
How it was run: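 CHO-S cells were transiently transfected with mutant PH20-HZ24 plasmids using GeneJuice and expressed for 48-72 h at 37 °C, 5% CO2. Media and cells were harvested separately, with PI-PLC treatment used to release GPI-anchored protein. Non-reduced samples were blotted with rabbit anti-PH20 (0.5 μg/mL), and a band near 66 kDa was scored as PH20.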

B1: SPAM1-TMFI: C-terminally truncated human PH20, precursor 495 aa (SEQ ID NO:9), mature 460 aa (SEQ ID NO:61) (protein, listed as Homo sapiens)
chain 1: MGVLKFKHIFFRSFVKSSGVSQIVFTFLLIPCCLTLNFRAPPVIPNVPFLWAWNAPSEFCLGKFDEPLDMSLFSFIGSPRINATGQGVTIFYVDRLGYYPYIDSITGVTVNGGIPQKISLQDHLDKAKKDITFYMPVDNLGMAVIDWEEWRPTWARNWKPKDVYKNRSIELVQQQNVQLSLTEATEKAKQEFEKAGKDFLVETIKLGKLLRPNHLWGYYLFPDCYNHHYKKPGYNGSCFNVEIKRNDDLSWLWNESTALYPSIYLNTQQSPVAATLYVRNRVREAIRVSKIPDAKSPLPVFAYTRIVFTDQVLKFLSQDELVYTFGETVALGASGIVIWGTLSIMRSMKSCLLLDNYMETILNPYIINVTLAAKMCSQVLCQEQGVCIRKNWNSSDYLHLNPDNFAIQLEKGGKFTVRGKPTLEDLEQFSEKFYCSCYSTLSCKEKADVKDTDAVDVCIADGVCIDAFLKPPMETEEPQIFYNASPSTLSATMFI
chain 2: LNFRAPPVIPNVPFLWAWNAPSEFCLGKFDEPLDMSLFSFIGSPRINATGQGVTIFYVDRLGYYPYIDSITGVTVNGGIPQKISLQDHLDKAKKDITFYMPVDNLGMAVIDWEEWRPTWARNWKPKDVYKNRSIELVQQQNVQLSLTEATEKAKQEFEKAGKDFLVETIKLGKLLRPNHLWGYYLFPDCYNHHYKKPGYNGSCFNVEIKRNDDLSWLWNESTALYPSIYLNTQQSPVAATLYVRNRVREAIRVSKIPDAKSPLPVFAYTRIVFTDQVLKFLSQDELVYTFGETVALGASGIVIWGTLSIMRSMKSCLLLDNYMETILNPYIINVTLAAKMCSQVLCQEQGVCIRKNWNSSDYLHLNPDNFAIQLEKGGKFTVRGKPTLEDLEQFSEKFYCSCYSTLSCKEKADVKDTDAVDVCIADGVCIDAFLKPPMETEEPQIFYNASPSTLSATMFI
modifications: HuPH20 precursor 1-495; esHuPH20 36-495
For B1, the Soluble [1] was “YES”, the “pH 5.5 Activity” value ([2]; Table 6) was 0.612 Units/ml and the “pH 7.4 Activity” value ([2]; Table 6) was 0.45 Units/ml. The “pH 5.5 Activity” value ([2]; Table 6A) was 0.770 Units/ml, the “pH 7.4 Activity” value ([2]; Table 6A) was 0.689 Units/ml and the “Expressed in Media Following Addition of PI-PLC” value (from here on “Expressed … of PI-PLC”) (CHO-S cells [3]) was “Initially in media”. For the same molecule, the “Expressed in Media” value (CHO-S cells [4]) was “YES”.

B2: SPAM1-SATM: C-terminally truncated human PH20, precursor 493 aa (SEQ ID NO:10), mature 458 aa (SEQ ID NO:62) (protein, listed as Homo sapiens)
chain 1: MGVLKFKHIFFRSFVKSSGVSQIVFTFLLIPCCLTLNFRAPPVIPNVPFLWAWNAPSEFCLGKFDEPLDMSLFSFIGSPRINATGQGVTIFYVDRLGYYPYIDSITGVTVNGGIPQKISLQDHLDKAKKDITFYMPVDNLGMAVIDWEEWRPTWARNWKPKDVYKNRSIELVQQQNVQLSLTEATEKAKQEFEKAGKDFLVETIKLGKLLRPNHLWGYYLFPDCYNHHYKKPGYNGSCFNVEIKRNDDLSWLWNESTALYPSIYLNTQQSPVAATLYVRNRVREAIRVSKIPDAKSPLPVFAYTRIVFTDQVLKFLSQDELVYTFGETVALGASGIVIWGTLSIMRSMKSCLLLDNYMETILNPYIINVTLAAKMCSQVLCQEQGVCIRKNWNSSDYLHLNPDNFAIQLEKGGKFTVRGKPTLEDLEQFSEKFYCSCYSTLSCKEKADVKDTDAVDVCIADGVCIDAFLKPPMETEEPQIFYNASPSTLSATM
chain 2: LNFRAPPVIPNVPFLWAWNAPSEFCLGKFDEPLDMSLFSFIGSPRINATGQGVTIFYVDRLGYYPYIDSITGVTVNGGIPQKISLQDHLDKAKKDITFYMPVDNLGMAVIDWEEWRPTWARNWKPKDVYKNRSIELVQQQNVQLSLTEATEKAKQEFEKAGKDFLVETIKLGKLLRPNHLWGYYLFPDCYNHHYKKPGYNGSCFNVEIKRNDDLSWLWNESTALYPSIYLNTQQSPVAATLYVRNRVREAIRVSKIPDAKSPLPVFAYTRIVFTDQVLKFLSQDELVYTFGETVALGASGIVIWGTLSIMRSMKSCLLLDNYMETILNPYIINVTLAAKMCSQVLCQEQGVCIRKNWNSSDYLHLNPDNFAIQLEKGGKFTVRGKPTLEDLEQFSEKFYCSCYSTLSCKEKADVKDTDAVDVCIADGVCIDAFLKPPMETEEPQIFYNASPSTLSATM
modifications: HuPH20 precursor 1-493; esHuPH20 36-493
For B2, the Soluble [1] was “YES”, the “pH 5.5 Activity” value ([2]; Table 6) was 0.7335 Units/ml and the “pH 7.4 Activity” value ([2]; Table 6) was 0.5715 Units/ml. For the same molecule, the “pH 5.5 Activity” value ([2]; Table 6A) was 0.851 Units/ml, the “pH 7.4 Activity” value ([2]; Table 6A) was 0.689 Units/ml and the “Expressed … of PI-PLC” value (CHO-S cells [3]) was “Initially in media”. The “Expressed in Media” value (CHO-S cells [4]) was “YES”.

B3: SPAM1-TLSA: C-terminally truncated human PH20, precursor 491 aa (SEQ ID NO:11), mature 456 aa (SEQ ID NO:63) (protein, listed as Homo sapiens)
chain 1: MGVLKFKHIFFRSFVKSSGVSQIVFTFLLIPCCLTLNFRAPPVIPNVPFLWAWNAPSEFCLGKFDEPLDMSLFSFIGSPRINATGQGVTIFYVDRLGYYPYIDSITGVTVNGGIPQKISLQDHLDKAKKDITFYMPVDNLGMAVIDWEEWRPTWARNWKPKDVYKNRSIELVQQQNVQLSLTEATEKAKQEFEKAGKDFLVETIKLGKLLRPNHLWGYYLFPDCYNHHYKKPGYNGSCFNVEIKRNDDLSWLWNESTALYPSIYLNTQQSPVAATLYVRNRVREAIRVSKIPDAKSPLPVFAYTRIVFTDQVLKFLSQDELVYTFGETVALGASGIVIWGTLSIMRSMKSCLLLDNYMETILNPYIINVTLAAKMCSQVLCQEQGVCIRKNWNSSDYLHLNPDNFAIQLEKGGKFTVRGKPTLEDLEQFSEKFYCSCYSTLSCKEKADVKDTDAVDVCIADGVCIDAFLKPPMETEEPQIFYNASPSTLSA
chain 2: LNFRAPPVIPNVPFLWAWNAPSEFCLGKFDEPLDMSLFSFIGSPRINATGQGVTIFYVDRLGYYPYIDSITGVTVNGGIPQKISLQDHLDKAKKDITFYMPVDNLGMAVIDWEEWRPTWARNWKPKDVYKNRSIELVQQQNVQLSLTEATEKAKQEFEKAGKDFLVETIKLGKLLRPNHLWGYYLFPDCYNHHYKKPGYNGSCFNVEIKRNDDLSWLWNESTALYPSIYLNTQQSPVAATLYVRNRVREAIRVSKIPDAKSPLPVFAYTRIVFTDQVLKFLSQDELVYTFGETVALGASGIVIWGTLSIMRSMKSCLLLDNYMETILNPYIINVTLAAKMCSQVLCQEQGVCIRKNWNSSDYLHLNPDNFAIQLEKGGKFTVRGKPTLEDLEQFSEKFYCSCYSTLSCKEKADVKDTDAVDVCIADGVCIDAFLKPPMETEEPQIFYNASPSTLSA
modifications: HuPH20 precursor 1-491; esHuPH20 36-491
For B3, the Soluble [1] was “YES”, the “pH 5.5 Activity” value ([2]; Table 6) was 0.5625 Units/ml and the “pH 7.4 Activity” value ([2]; Table 6) was 0.3645 Units/ml. For the same molecule, the “pH 5.5 Activity” value ([2]; Table 6A) was 0.729 Units/ml, the “pH 7.4 Activity” value ([2]; Table 6A) was 0.851 Units/ml and the “Expressed … of PI-PLC” value (CHO-S cells [3]) was “Initially in media”. The “Expressed in Media” value (CHO-S cells [4]) was “YES”.

B4: SPAM1-STLS: C-terminally truncated human PH20, precursor 490 aa (SEQ ID NO:13), mature 455 aa (SEQ ID NO:65) (protein, listed as Homo sapiens)
chain 1: MGVLKFKHIFFRSFVKSSGVSQIVFTFLLIPCCLTLNFRAPPVIPNVPFLWAWNAPSEFCLGKFDEPLDMSLFSFIGSPRINATGQGVTIFYVDRLGYYPYIDSITGVTVNGGIPQKISLQDHLDKAKKDITFYMPVDNLGMAVIDWEEWRPTWARNWKPKDVYKNRSIELVQQQNVQLSLTEATEKAKQEFEKAGKDFLVETIKLGKLLRPNHLWGYYLFPDCYNHHYKKPGYNGSCFNVEIKRNDDLSWLWNESTALYPSIYLNTQQSPVAATLYVRNRVREAIRVSKIPDAKSPLPVFAYTRIVFTDQVLKFLSQDELVYTFGETVALGASGIVIWGTLSIMRSMKSCLLLDNYMETILNPYIINVTLAAKMCSQVLCQEQGVCIRKNWNSSDYLHLNPDNFAIQLEKGGKFTVRGKPTLEDLEQFSEKFYCSCYSTLSCKEKADVKDTDAVDVCIADGVCIDAFLKPPMETEEPQIFYNASPSTLS
chain 2: LNFRAPPVIPNVPFLWAWNAPSEFCLGKFDEPLDMSLFSFIGSPRINATGQGVTIFYVDRLGYYPYIDSITGVTVNGGIPQKISLQDHLDKAKKDITFYMPVDNLGMAVIDWEEWRPTWARNWKPKDVYKNRSIELVQQQNVQLSLTEATEKAKQEFEKAGKDFLVETIKLGKLLRPNHLWGYYLFPDCYNHHYKKPGYNGSCFNVEIKRNDDLSWLWNESTALYPSIYLNTQQSPVAATLYVRNRVREAIRVSKIPDAKSPLPVFAYTRIVFTDQVLKFLSQDELVYTFGETVALGASGIVIWGTLSIMRSMKSCLLLDNYMETILNPYIINVTLAAKMCSQVLCQEQGVCIRKNWNSSDYLHLNPDNFAIQLEKGGKFTVRGKPTLEDLEQFSEKFYCSCYSTLSCKEKADVKDTDAVDVCIADGVCIDAFLKPPMETEEPQIFYNASPSTLS
modifications: HuPH20 precursor 1-490; mature HuPH20 36-490
In the case of B4, the Soluble [1] is reported as “YES”, the “pH 5.5 Activity” value ([2]; Table 6) is reported as 1.2375 Units/ml and the “pH 7.4 Activity” value ([2]; Table 6) is reported as 0.819 Units/ml. The “Expressed … of PI-PLC” value (CHO-S cells [3]) was “Initially in media” and the “Expressed in Media” value (CHO-S cells [4]) was “YES”.
